B1: H1H15259P2 (antibody, V domains shown)
VH: QVQLVESGGGVVQPGRSLRLSCAASGFTFSNYGIHWVRQAPGKGLEWVAGIYYDGSNKYYGDSVKGRFTISRDNSKNTLYLQMNSLRAEDTAVYYCARDRGNNHYYHNNPYYYYHGLDVWGQGTTVTVSS
VL: not shown
B2: H1H15233P2 (antibody, V domains shown)
VH: EVQLVESGGGLVQPGGSLRLSCAASGFSFSSYGMNWVRQAPGKGLEWVSAISGRGGNTYSADSVKGRFTISRDNSKNTLFLQMNGLRAEDSAFYYCAKVGTYSSSSPFDYWGQGTLVTVSS
VL: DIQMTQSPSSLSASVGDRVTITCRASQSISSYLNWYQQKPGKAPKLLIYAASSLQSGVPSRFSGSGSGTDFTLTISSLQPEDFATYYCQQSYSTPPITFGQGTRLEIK
B3: H1H15208P (antibody, V domains shown)
VH: EVQLVESGGDLVQPGGSLRLSCTASGFTFSNYEMNWVRQAPEKGLDWVSFISSSGGAIYYADSVKGRFTISRDNAKNSLYLQMNSLRAEDSAIYFCARSDSGGNSRYWGQGTLVTVSS
VL: DIQMTQSPSSVSASVGDRVTVTCRASQDISNWLVWYQQKPGKAPKFLIYAASSLQSGVPSRFSGSGSGTDFTLTISSLQPEDFATYYCQQANSFPPTFGGGTKVEIK
B4: H1H15264P2 (antibody, V domains shown)
VH: QLQLQESGPGLVKPSETLSLTCSVSGGSINNNNYYWGWIRQPPGRGLEWIGSFFYSGPTYYNPSLRSRVTISVDTSKNQFSLKLNSVTAADTAIYYCARQDGNYYPLFDYWGQGTLVTVSS
VL: not shown
B5: H1H15260P2 (antibody, V domains shown)
VH: QVQLQESGPGLVKPSETLSLTCSVSGGSITSSYWSWIRQPPGRGLEWIGYVYYYGTTKYNPSLKSRVTTSMDTSKNQFSLKLNSVTAADTAVYYCARLELLFDYWGQGTLVTVSS
VL: not shown
B6: H1H15237P2 (antibody, V domains shown)
VH: EVQLVESGGGLVQPGGSLRLSCAASGFTSNSYPMSWVRQAPGKGLEWVSGISGRGGNTYYADSVKGRFTISRDNSKNTLYLQMNSLRVEDTAVYYCAETGTAFDYWGQGTLVTVSS
VL: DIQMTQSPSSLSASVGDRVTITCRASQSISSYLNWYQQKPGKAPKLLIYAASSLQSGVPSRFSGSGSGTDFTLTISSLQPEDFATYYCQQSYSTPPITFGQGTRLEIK
B7: H1H15249P2 (antibody, V domains shown)
VH: QLQLQESGPGLVKPSETLSLTCTVSGGSISNNNYYWGWIRQPPGKGLDWIGSIYYSGNTYYNPSLKSRVTISVDTSKNQFSLKMSSVTATDTALYYCARQGADHNWVDPWGQGTLVTVSS
VL: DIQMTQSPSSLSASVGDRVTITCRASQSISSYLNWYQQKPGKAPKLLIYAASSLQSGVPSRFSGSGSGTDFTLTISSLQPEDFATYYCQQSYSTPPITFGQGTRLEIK
B8: H1H15253P2 (antibody, V domains shown)
VH: EVQLVESGGGLVQPGGSLRLSCVVSGFTSRNYAMSWVRQAPGKGLEWVSAISGSGGSTYYADSVKGRFTISRDNPKNTLYLQMNSLRAEDTALYYCAEDPGTSFDYWGQGTLVTVSS
VL: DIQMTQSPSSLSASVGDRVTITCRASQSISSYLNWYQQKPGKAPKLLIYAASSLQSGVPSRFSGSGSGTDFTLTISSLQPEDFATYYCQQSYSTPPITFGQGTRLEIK
B9: H1H15231P2 (antibody, V domains shown)
VH: QLQLQESGPGLVKPSETLSLTCTVSGGSISSNTYYWGWIRQPPGKGLEWIGTIYYTGNTYYKSSLKSRVTISVDTSRNQFSLKLTSVTAADTAVYYCARQFADLNYVDYWGQGTLVTVSS
VL: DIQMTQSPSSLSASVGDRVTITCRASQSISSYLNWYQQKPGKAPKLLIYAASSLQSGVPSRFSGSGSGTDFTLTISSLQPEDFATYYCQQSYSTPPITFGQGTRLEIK
B10: H1H15215P (antibody, V domains shown)
VH: EVQLVESGGGLVQPGGSLRLSCAASGFTFSTYGMSWVRQAPGKGLEWVSTIIGSGYNTYYSDSVKGRFTMSRDNSKSTLYLQMNSLRAEDTAVYYCTKEGPIIGTTNWGQGTLVTVSS
VL: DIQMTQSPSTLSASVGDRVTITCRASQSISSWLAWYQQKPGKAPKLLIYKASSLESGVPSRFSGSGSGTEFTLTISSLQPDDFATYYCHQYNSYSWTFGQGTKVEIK
B11: H1H15228P2 (antibody, V domains shown)
VH: EVQLVESGGGLVQPGGSLRLSCAVFGFTFSGYAMSWVRQAPGKGLEWVSAISGGGGSTYYTDSVKGRFTISRDNSKNTLYLQMNSLRAEDTAVYYCASYWNNGMDVWGQGTTVTVSS
VL: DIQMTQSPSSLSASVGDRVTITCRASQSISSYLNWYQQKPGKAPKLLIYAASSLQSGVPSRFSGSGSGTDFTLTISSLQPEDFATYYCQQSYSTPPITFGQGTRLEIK

biological target: MERS-CoV spike protein (EMC/2012), wt (MERS-CoV (isolate EMC/2012), UniProt K9N5Q8 18-1353); assay: cell-based or functional assay

| Binder | IC50 against MERSpp | IC50 against live virus (EMC2012) |
| --- | --- | --- |
| B1 | 0.0764 nM | 1.63 nM |
| B2 | 0.0873 nM | 1.37 nM |
| B3 | 0.0827 nM | 2.41 nM |
| B4 | 0.134 nM | 2.39 nM |
| B5 | 0.0643 nM | 6.7 nM |
| B6 | 0.066 nM | 1.01 nM |
| B7 | 0.227 nM | 12 nM |
| B8 | 0.151 nM | 2.42 nM |
| B9 | 0.102 nM | 0.92 nM |
| B10 | 0.192 nM | 2.67 nM |
| B11 | 0.0975 nM | 0.898 nM |

biological target: MERS-RBD-mFc (MERS-CoV (isolate EMC/2012), UniProt K9N5Q8 367-606); assay: Octet BLI, MERS.mFc captured on the sensor, then mAb-1 applied

| Binder | mAb-1 Binding (nm) |
| --- | --- |
| B1 | 0.42 nm |
| B2 | 0.46 nm |
| B3 | 0.46 nm |
| B4 | 0.41 nm |
| B5 | 0.39 nm |
| B6 | 0.39 nm |
| B7 | 0.4 nm |
| B8 | 0.38 nm |
| B9 | 0.5 nm |
| B10 | 0.56 nm |
| B11 | 0.52 nm |

— patent US20190351049A1 (Regeneron, published 2019)
